In patent US20220251206A1 (Bristol-Myers Squibb, published 2022):
Residue numbers refer to the chain shown, from its start.

T1: CTLA4 (UniProt P16410 36-223, limits assumed)
T1 sequence (looked up): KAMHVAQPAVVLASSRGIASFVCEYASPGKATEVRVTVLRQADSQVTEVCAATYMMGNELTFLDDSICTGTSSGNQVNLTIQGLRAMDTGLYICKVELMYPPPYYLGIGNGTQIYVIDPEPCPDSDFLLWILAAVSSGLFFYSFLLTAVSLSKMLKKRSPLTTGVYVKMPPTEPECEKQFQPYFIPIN

B1: de-prodrugged Antibody A1 (antibody, human IgG1, kappa, V domains shown)
VH: QVQLVESGGGVVQPGRSLRLSCAASGFTFSSYTMHWVRQAPGKGLEWVTFISYDGNCKYYADSVKGRFTISRDNSKNTLYLQMNSLRAEDTAIYYCARTGWLGPFDYWGQGTLVTVSS
VL: not shown
modifications: succinimide residue (or its ring-opened derivative) left on the substituted-in Cys of VH CDR2 after cleavage of the linker
B2: de-prodrugged Antibody D1 (antibody, human IgG1, kappa, V domains shown)
VH: B1 VH with C57N
VL: not shown
modifications: succinimide residue (or its ring-opened derivative) left on Cys 53 of SEQ ID NO:10 after cleavage of the linker
B3: de-prodrugged Antibody E1 (antibody, human IgG1, kappa, V domains shown)
VH: B1 VH with C57N
VL: not shown
modifications: succinimide residue (or its ring-opened derivative) left on Cys 57 of SEQ ID NO:10 after cleavage of the linker
B4: de-prodrugged Antibody B1 (antibody, human IgG1, kappa, V domains shown)
VH: B1 VH with C57N
VL: not shown
modifications: succinimide residue (or its ring-opened derivative) left on Cys 28 of SEQ ID NO:10 after cleavage of the linker
B5: de-prodrugged Antibody C1 (antibody, human IgG1, kappa, V domains shown)
VH: B1 VH with C57N
VL: not shown
modifications: succinimide residue (or its ring-opened derivative) left on Cys 31 of SEQ ID NO:10 after cleavage of the linker

What follows are binders tested against T1, CTLA4 (assay: cell-based or functional assay).

IL-2 secretion by SEB-stimulated PBMC (HTRF) [fold]	Binder
~3	B1
~3	B2
~3	B3
~3	B4
~3	B5
